Data from patent US20230149515A1, “INHIBITION OF SARS-COV-2 VIRAL ENTRY THROUGH ORAL ADMINISTRATION OF L[…] USES THEREOF” (priority 2020, published 2023).

Test system: SARS-CoV-2
Format: cell-based

B1: lactoferrin (protein, UniProt P02788 20-710, looked up)
Lactotransferrin: GRRRSVQWCAVSQPEATKCFQWQRNMRKVRGPPVSCIKRDSPIQCIQAIAENRADAVTLDGGFIYEAGLAPYKLRPVAAEVYGTERQPRTHYYAVAVVKKGGSFQLNELQGLKSCHTGLRRTAGWNVPIGTLRPFLNWTGPPEPIEAAVARFFSASCVPGADKGQFPNLCRLCAGTGENKCAFSSQEPYFSYSGAFKCLRDGAGDVAFIRESTVFEDLSDEAERDEYELLCPDNTRKPVDKFKDCHLARVPSHAVVARSVNGKEDAIWNLLRQAQEKFGKDKSPKFQLFGSPSGQKDLLFKDSAIGFSRVPPRIDSGLYLGSGYFTAIQNLRKSEEEVAARRARVVWCAVGEQELRKCNQWSGLSEGSVTCSSASTTEDCIALVLKGEADAMSLDGGYVYTAGKCGLVPVLAENYKSQQSSDPDPNCVDRPVEGYLAVAVVRRSDTSLTWNSVKGKKSCHTAVDRTAGWNIPMGLLFNQTGSCKFDEYFSQSCAPGSDPRSNLCALCIGDEQGENKCVPNSNERYYGYTGAFRCLAENAGDVAFVKDVTVLQNTDGNNNEAWAKDLKLADFALLCLDGKRKPVTEARSCHLAMAPNHAVVSRMDKVERLKQVLLHQQAKFGRNGSDCPDKFCLFQSETKNLLFNDNTECLARLHGKTTYEKYLGPQYVAGITNLKKCSTSPLLEACEFLRK
efficacy in preventing SARS-CoV-2 infection (Huh-7 cells, FIG. 2): ~100% | inhibition of SARS-CoV-2 infection (efficacy) (all concentrations of lactoferrin tested, FIG. 3B): 100% | reduction in SARS-Cov-2 synctitia (dose response study, all concentrations tested ranging from 200 ug/mL to 12.5 ug/mL, compared to viral control, FIG. 3A): > 95%
